In the supplement of paper PMC12636428:

The sequences below were run on Saccharomyces cerevisiae (assay: transcriptional activation domain activity (GFP:mCherry ratio, weighted mean of sorted bins, harmonized to initial dataset scale) (arbitrary fluorescence ratio units); higher = stronger transcriptional activation). Conditions: beta-estradiol 1 µM; induction time 4 h.
Method in brief: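 After a 1:5 dilution into SC with 1 uM beta-estradiol and 4 hours at 30 °C, yeast diploids carrying a GFP reporter and URA3-integrated barcoded tiles were sorted into 8 bins by GFP:mCherry ratio. The tiles were fused to an estradiol-inducible synthetic transcription factor. Barcodes were sequenced, tiles below 50 reads were discarded, and activation activity was taken as the read-weighted mean of bin median fluorescence, averaged across barcodes and linearly mapped onto the initial dataset scale.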

Row | Sequence | transcriptional activation domain activity
1 | MGCDVVGCDVVGFLFFLFFFILFLGLLVCWLAGWHVCWVFWFLVFVLGGLGGL | 48200
2 | YTTPQFAGMWSQLVEWQWLVIEKFLDILLNMLYLLHGMSYIWGNLFLPYFRLV | 53600
3 | GSTNRSGDGSSDDERRKSRRRGRRRKASVSSSSSGGSKSSSTTSRSRSRSRSR | 7680
4 | MNHTSRFFSPFFLFSLFLSFPSFLLPCFLLLFLFLPFLPPSLSLLSLILYKFW | 31900
5 | AVVVTVWKLCDHPVMAWILGLIRCLTKKLKEVRQCKEELKQFFRDVVCKIEIA | 39000
6 | RQSTSRRSDPGPVSRVTELARSDQDTTTTKLVSRLRATAQIRVQVVLAIVFRH | 53200
7 | KIHLVNIAQVVVFFIYRLLYGLIPLFEIATCAYYPLLVSLWHLDYLLFYTVMF | 62800
8 | DDETADGERQSKREKADDDDDGEEMEIDEEEESAANRNTAVVPPAVQKPSARL | 19200
9 | IGKVTSAGLMSKTVRVDRPVQEWHNYLRKFYKSSKHYLVHDPANSLRTGDMIS | 69800
10 | TGGLPELREHLDDGRASYAYARVTYSNDKESQREKFVLVVWIGPACKVMRKAK | 25700
11 | CHLLLVCLFYDFLTIEYYLYGSLLLLLLHDCFLLKICEFIVRPTCLPGLFHAK | 60500
12 | MRYRPSEDLGKKLLLLFIYILFRGKLVVNPFHFFSSFLSFFFFFFFVFFALLL | 35900
13 | WRYGKCQVCGYVMINYPGPNQRHHCLEGRVRTVYNTVTFPCYLEVHVVQMIWL | 60800
14 | MGLWARFICFVIPLFFHYFPLFSFSFLLNIFPHYIYFFPTFYKSGPLFLCFFM | 50500
15 | LSILSSLSFSFLSSLSLSFFTLIPFLPLLLFLYSLYSHLFLLLSFILFPHPSL | 65400
16 | MCINMYFWKVFFMWTLIFFGLSYIPLSFPGMSYFCLLQHKVFLIILGNHFLRF | 56800
17 | DKEKMEDGLIRVRLYFFTKLAGKPFYPTLLWSCLHSLTLKRLVALLRKSQLSA | 68900
18 | RGGRGRRNGGKERGKEKKGKKEEENDRRGKGKERKERRKNDGGKRREGREREK | 47600
19 | MSDWEEKWSKSRNRPYYFNKTTNESVWDKPDGFDGPAAKPPGSEGKVRASHLL | 38300
20 | AAKRKTRADEHEEDEEEEHREATVVRRARGRPRKVEAPEPEAPVRATRGRATK | 17000
21 | GKTYTLEQDEDVLDTWFSSGLWPFSTLGWPNQTHDLENLFPTDVLETGWDILF | 126000

Row | Sequence | transcriptional activation domain activity
22 | YEASNHPEFDLNADVGLVIQVLEQTHSHTPIKLCSLIVKLQVVSGFLSYLESD | 32800
23 | MGRELVLFIFFFFLFFFPFFFPLLLPLLLSSVRLVDIFLLKKYYLINLSLAYP | 37400
24 | LASIVMFRTFHEGSTWTGLTRTRMFWYVFLFSFFWYWVPGYIMPILSFFSILC | 69200
25 | ASASREKGKGKGREEEKKEGESKGKEKGRKEEEKGGEEKGGEEEDDEDEDEDE | 30900
26 | RSKVLRPFWLFLLALCYNLVHATALFYQVITLNVAVNSYSNALLTLLMSNQFV | 53500
27 | RGRLPCRYTIWIYSLTRVACLLGVIVCTVGMDVSTSYNCQLWVSSVATLFCVT | 70300
28 | YDGGRLIVAIPFVCKVLEQAGRSTVFKPPNPWLMAVVRVLVELYKFAELKLNL | 53800
29 | VLLVVMFFGVLHKRNATHLWNLLYFQGLFWILAATMTELPSVVCLPYSPPLRC | 57400
30 | MKVNRPFACSHEGCEKAFARKGELTKHERLHSGERPFACSHCEKAFGRSDARK | 16000
31 | PKKLQEDTELETEQENQMLNQVGNINYTHDFSLSHEIDDLIRELFGVGTPQKL | 65300
32 | RCANARIVWGARVVGVGGQGEGEAKAWVDVEMAGEEGAKRVERREADFVVGCD | 37600
33 | MYRCYCGLLMVPWYPCAVVFHVCLCGVRWGCENGVIGVYVLGWWVLWFVVLFG | 32600
34 | KDLNVVEGWEHQGVLRAAANTVKSVRMKESSTGGSQEKVYLKLVESTGHTLQG | 21200
35 | AATNKYDATIQRMLSRSVFVTCNSWYRVGGTGKNTSIFPGPGMLFWWWTRQAR | 61100
36 | MDATAKKAVEQPKRRACDECRGRKLACSKEVDGCARCKREGIKCVYSAQKRMG | 10500
37 | PSFLWWLPLVLFVMATGIFVILSFLLFLIIHGLYYIVPLWQKCGSIHVCVSVL | 52700
38 | TFLGFFDFTCSSPSYVIHHLDITNLFVSPFLFFPSFPSIFIFCWNILILGLFE | 57300
39 | NGGGEQPKGGRGGKSEGGAGNDQGRTNNRGRGDRRGGRGGRDNRGGRGGGSRD | < 6570
40 | EEESQAKKTTAAASSTKDLDPKGGTSGKEKKENEGTLTKRGKSGRRKVRKSVL | 17800
41 | FAEQGWQVVYYSWQWSLGVYIHYYLPSSVWAGYPHISLPVVIKVYYLMQISLY | 37900
42 | GEDEEEGEEEEEEDDDDEEEKDHDEDEGDQGDGASDDADAAAQERPGKPRPGR | 8020
